# Test results published in patent US20230020089A1.
# Tests used:
# [1] = target: […] presented by HLA-A*0201 (EBV; human); experiment: cell-based or functional assay
# [2] = target: […] presented by HLA-A*0201 (HCMV; human); experiment: cell-based or functional assay
substance,measurement,setting,value
TCR recognizing […] presented by A*0201 (PDB #3REV),"luciferase induction, reporter T cells + U-87 APCs, short cassette 9AA (relative to uninfected controls)",[1],12
same,"luciferase induction, reporter T cells + U-87 APCs, short cassette 17AA (relative to uninfected controls)",[1],10.3
same,"luciferase induction, reporter T cells + U-87 APCs, short cassette 25AA (relative to uninfected controls)",[1],14.6
same,"luciferase induction, reporter T cells + U-87 APCs, short cassette AAY (relative to uninfected controls)",[1],11.3
same,"luciferase induction, reporter T cells + U-87 APCs, short cassette DPP (relative to uninfected controls)",[1],1.1
same,"luciferase induction, reporter T cells + U-87 APCs, short cassette RR (relative to uninfected controls)",[1],8.5
same,"luciferase induction, reporter T cells + U-87 APCs, targeting cassette A",[1],6.1
same,"luciferase induction, reporter T cells + U-87 APCs, targeting cassette B",[1],6.3
same,"luciferase induction, reporter T cells + U-87 APCs, targeting cassette C",[1],7.6
same,"luciferase induction, reporter T cells + U-87 APCs, targeting cassette D",[1],7
same,"luciferase induction, reporter T cells + U-87 APCs, targeting cassette E",[1],5.9
same,"luciferase induction, reporter T cells + U-87 APCs, targeting cassette F",[1],3.7
same,"luciferase induction, reporter T cells + U-87 APCs, targeting cassette G",[1],7.6
same,"luciferase induction, reporter T cells + U-87 APCs, targeting cassette H",[1],5.4
same,"luciferase induction, reporter T cells + U-87 APCs, targeting cassette J",[1],6.4
same,"luciferase induction, reporter T cells, short cassette AAY",[1],11.3
TCR recognizing […] presented by A*0201 (PDB #5D2N),"luciferase induction, reporter T cells + U-87 APCs, short cassette 9AA (relative to uninfected controls)",[2],33.6
same,"luciferase induction, reporter T cells + U-87 APCs, short cassette 17AA (relative to uninfected controls)",[2],42.8
same,"luciferase induction, reporter T cells + U-87 APCs, short cassette 25AA (relative to uninfected controls)",[2],42.3
same,"luciferase induction, reporter T cells + U-87 APCs, short cassette AAY (relative to uninfected controls)",[2],24.5
same,"luciferase induction, reporter T cells + U-87 APCs, short cassette DPP (relative to uninfected controls)",[2],0.9
same,"luciferase induction, reporter T cells + U-87 APCs, short cassette RR (relative to uninfected controls)",[2],21.7
same,"luciferase induction, reporter T cells + U-87 APCs, targeting cassette A",[2],32.5
same,"luciferase induction, reporter T cells + U-87 APCs, targeting cassette B",[2],31.8
same,"luciferase induction, reporter T cells + U-87 APCs, targeting cassette C",[2],29.1
same,"luciferase induction, reporter T cells + U-87 APCs, targeting cassette D",[2],29.1
same,"luciferase induction, reporter T cells + U-87 APCs, targeting cassette E",[2],28.4
same,"luciferase induction, reporter T cells + U-87 APCs, targeting cassette F",[2],20.4
same,"luciferase induction, reporter T cells + U-87 APCs, targeting cassette G",[2],35
same,"luciferase induction, reporter T cells + U-87 APCs, targeting cassette H",[2],30.3
same,"luciferase induction, reporter T cells + U-87 APCs, targeting cassette J",[2],38.1
same,"luciferase induction, reporter T cells, short cassette AAY",[2],24.5
